{"source": "paper PMC3249237", "origin": "cited, not measured here", "target": "LRP6 E1E2 (Homo sapiens) (UniProt O75581)", "sequence (O75581 20-630)": "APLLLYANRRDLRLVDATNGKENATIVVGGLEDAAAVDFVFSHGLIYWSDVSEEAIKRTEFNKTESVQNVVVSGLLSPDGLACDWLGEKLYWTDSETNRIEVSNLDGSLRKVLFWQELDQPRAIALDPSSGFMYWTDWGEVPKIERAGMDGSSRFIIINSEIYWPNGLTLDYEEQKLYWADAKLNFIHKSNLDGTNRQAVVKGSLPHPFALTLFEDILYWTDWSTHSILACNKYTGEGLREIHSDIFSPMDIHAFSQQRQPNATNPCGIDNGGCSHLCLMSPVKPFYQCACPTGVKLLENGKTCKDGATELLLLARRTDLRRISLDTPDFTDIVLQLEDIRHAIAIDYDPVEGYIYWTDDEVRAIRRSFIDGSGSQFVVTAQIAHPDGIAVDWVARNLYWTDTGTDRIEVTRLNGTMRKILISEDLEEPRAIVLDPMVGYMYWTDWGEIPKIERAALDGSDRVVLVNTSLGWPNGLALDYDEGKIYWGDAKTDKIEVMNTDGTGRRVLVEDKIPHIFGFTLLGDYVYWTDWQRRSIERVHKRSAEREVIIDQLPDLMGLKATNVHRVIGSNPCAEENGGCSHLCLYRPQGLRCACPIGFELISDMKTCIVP", "note": "pKd: −log10 of the molar value.", "data": [{"substance": "DKK1 (from UniProt O94907)", "values": [{"measurement": "pKd", "value": 7.19}]}]}
